Source: paper PMC4407904, “Increased Expression of the Large Conductance, Calcium-Activated K^+ (BK) Channel in Adult-Onset Neuronal Ceroid Lipofuscinosis” (PLoS ONE, 2015)

Biological target: the molecule itself
Assay: SDS-PAGE and immunoblot of detergent-resistant oligomers; soluble CAD cell lysates (1% Triton X-100, 0.1% SDS lysis buffer) 24-72 h after transient transfection; blots with anti-myc, anti-flag or anti-CSPα

B1: myc-tagged wild type cysteine string protein (CSPα) (natural protein, UniProt P60905 1-198, looked up)
chain: MADQRQRSLSTSGESLYHVLGLDKNATSDDIKKSYRKLALKYHPDKNPDNPEAADKFKEINNAHAILTDATKRNIYDKYGSLGLYVAEQFGEENVNTYFVLSSWWAKALFVVCGLLTCCYCCCCLCCCFNCCCGKCKPKAPEGEETEFYVSPEDLEAQLQSDEREATDTPIVIQPASATETTQLTADSHPSYHTDGFN
notes: Cysteine string protein alpha (CSPα, DnaJC5), wild type; Seen on blots as an unpalmitoylated 26 kDa species, a palmitoylated 35 kDa monomer and a 70 kDa dimer; rat cDNA is surmised; also called WTCSPα; myc-CSPα; source: CAD cells, transiently transfected, in lysate
For B1, the “stoichiometry N” value was 2.
